From IntAct's records for PubMed 31704776

B1: Meiotic recombination protein REC114 (Homo sapiens), Q7Z4M0 (parent)
chain: MAEAGKVPLSLGLTGGEAAEWPLQRYARCIPSNTRDPPGPCLEAGTAPCPTWKVFDSNEESGYLVLTIVISGHFFIFQGQTLLEGFSLIGSKDWLKIVRRVDCLLFGTTIKDKSRLFRVQFSGESKEQALEHCCSCVQKLAQYITVQVPDGNIQELQLIPGPPRATESQGKDSAKSVPRQPGSHQHSEQQQVCVTAGTGAPDGRTSLTQLAQTLLASEELPHVYEQSAWGAEELGPFLRLCLMDQNFPAFVEEVEKELKKLAGLRN
partner: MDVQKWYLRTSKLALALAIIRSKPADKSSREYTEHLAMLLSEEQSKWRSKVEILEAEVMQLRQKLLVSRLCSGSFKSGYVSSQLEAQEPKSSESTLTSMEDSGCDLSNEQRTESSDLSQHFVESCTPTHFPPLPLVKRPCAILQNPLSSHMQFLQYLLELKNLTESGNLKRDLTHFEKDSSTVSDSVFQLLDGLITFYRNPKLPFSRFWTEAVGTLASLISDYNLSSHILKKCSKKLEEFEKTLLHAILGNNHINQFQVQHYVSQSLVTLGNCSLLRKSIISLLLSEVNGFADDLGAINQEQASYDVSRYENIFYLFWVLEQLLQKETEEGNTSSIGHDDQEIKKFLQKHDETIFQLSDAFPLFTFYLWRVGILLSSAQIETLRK

Variants of: B1
Details: with mei4_human MEI4, A8MW99

effect of a mutation on the interaction | Variant
with no effect | MAEAGKVPLSLGLTGGEAAEWPLQRYARCIPSNTRDPPGPCLEAGTAPCPTWKVFDSNEESGYLVLTIVISGHFFIFQGQTLLEGFSLIGSKDWLKIVRRVDCLLFGTTIKDKSRLFRVQFSGESKEQALEHGCSCVQKLAQYITVQVPDGNIQELQLIPGPPRATESQGKDSAKSVPRQPGSHQHSEQQQVCVTAGTGAPDGRTSLTQLAQTLLASEELPHVYEQSAWGAEELGPFLRLCLMDQNFPAFVEEVEKELKKLAGLRN [C133G]
